Residue numbers refer to the chain shown, from its start. Names and notes keep the numbering of the source.
B1: SHMT1 wild type (enzyme, human, UniProt P34896 1-483, looked up)
chain: MTMPVNGAHKDADLWSSHDKMLAQPLKDSDVEVYNIIKKESNRQRVGLELIASENFASRAVLEALGSCLNNKYSEGYPGQRYYGGTEFIDELETLCQKRALQAYKLDPQCWGVNVQPYSGSPANFAVYTALVEPHGRIMGLDLPDGGHLTHGFMTDKKKISATSIFFESMPYKVNPDTGYINYDQLEENARLFHPKLIIAGTSCYSRNLEYARLRKIADENGAYLMADMAHISGLVAAGVVPSPFEHCHVVTTTTHKTLRGCRAGMIFYRKGVKSVDPKTGKEILYNLESLINSAVFPGLQGGPHNHAIAGVAVALKQAMTLEFKVYQHQVVANCRALSEALTELGYKIVTGGSDNHLILVDLRSKGTDGGRAEKVLEACSIACNKNTCPGDRSALRPSGLRLGTPALTSRGLLEKDFQKVAHFIHRGIELTLQIQSDTGVRATLKEFKERLAGDKYQAAVQALREEVESFASLFPLPGLPDF
B2: SHMT2ΔN (residues 18-504), dimeric (PLP-free) form (enzyme, human, UniProt P34897 18-504, looked up)
chain: QLVRMAIRAQHSNAAQTQTGEANRGWTGQESLSDSDPEMWELLQREKDRQCRGLELIASENFCSRAALEALGSCLNNKYSEGYPGKRYYGGAEVVDEIELLCQRRALEAFDLDPAQWGVNVQPYSGSPANLAVYTALLQPHDRIMGLDLPDGGHLTHGYMSDVKRISATSIFFESMPYKLNPKTGLIDYNQLALTARLFRPRLIIAGTSAYARLIDYARMREVCDEVKAHLLADMAHISGLVAAKVIPSPFKHADIVTTTTHKTLRGARSGLIFYRKGVKAVDPKTGREIPYTFEDRINFAVFPSLQGGPHNHAIAAVAVALKQACTPMFREYSLQVLKNARAMADALLERGYSLVSGGTDNHLVLVDLRPKGLDGARAERVLELVSITANKNTCPGDRSAITPGGLRLGAPALTSRQFREDDFRRVVDFIDEGVNIGLEVKSKTAKLQDFKSFLLKDSETSQRLANLRQRVEQFARAFPMPGFDEH
B3: SHMT2ΔN+A285T (enzyme, human, UniProt P34897 18-504, looked up)
chain: B2 chain with A268T
B4: SHMT2ΔN (residues 18-504), PLP-bound tetramer (enzyme, human, UniProt P34897 18-504, looked up)
chain: B2 chain
modifications: pyridoxal-5'-phosphate (PLP) bound, internal aldimine linkage; PLP acceptor Lys280
B5: Flag-HA epitope-tagged SHMT2ΔN (MEFs) (enzyme, human, UniProt P34897 18-504, looked up)
chain: B2 chain

Legend:
SEC [1] = biological target: the molecule itself; assay: SEC
SEC [2] = biological target: the molecule itself; assay: SEC; remark: listed apart in the source
native gel or EMSA = biological target: the molecule itself; assay: native gel or EMSA

Row | Protein | stoichiometry N (SEC [2]) | also measured
1 | B1 |  | stoichiometry N (SEC [1]): 4
2 | B2 | 2 | 
3 | B3 | 2 | 
4 | B4 | 4 | 
5 | B5 |  | stoichiometry N (native gel or EMSA): 2

Source: paper PMC6914362 (Nature, 2019)
